Assay results reported in patent US6528098B2, “Preparation of a therapeutic composition” (Advanced Viral Research Corp., priority 1996, dated 2003).
No end group written: not given here.

What was measured:
Format in all cases: physicochemical
trypsin = target: T1, trypsin (Bos taurus, UniProt P00760); experiment: Treatment of Product R with trypsin, SDS-PAGE on a 16% gel; design: key: “−” represents no substantial alteration of the stainable bands; “+” represents substantial alteration of the stainable bands; conditions: 250 μg/ml trypsin, 25° C., 19 hours
T1 construct: purchased Boehringer Mannheim USA
T1 sequence (P00760 24-246): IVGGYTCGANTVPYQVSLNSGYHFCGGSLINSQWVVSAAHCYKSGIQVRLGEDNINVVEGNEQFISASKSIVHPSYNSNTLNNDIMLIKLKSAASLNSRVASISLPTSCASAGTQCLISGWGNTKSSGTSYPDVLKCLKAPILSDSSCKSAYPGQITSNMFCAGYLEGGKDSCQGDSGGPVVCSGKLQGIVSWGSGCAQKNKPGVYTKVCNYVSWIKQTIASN
Method: (§1) The biochemical properties of the peptides: Some biochemical properties of the silverstainable peptide components of Product R are analyzed using various catabolic enzymes, as described below:
The treatment with trypsin (Boehringer Mannheim USA): Trypsin is a serine protease, which specifically cleaves peptide bonds of lysine and arginine at the C-terminal at pH 7.5-9.0. A Product R sample is incubated in a reaction buffer having 100 mM Tris-HCl, pH 8.0, 0.1% SDS and 250 μg/ml of sequencing grade trypsin at 25° C. for 19 hours and then subject to SDS-PAGE on a 16% gel. While serum proteins will be broken down to peptides smaller than 4.3 KDa under such reaction conditions, none of the silver stained components of Product R are affected by trypsin.
(§2) A summary of the above described treatments by catabolic enzymes is provided in the following TABLE III, and the results of the treatment are shown in FIG. 5, wherein “−” represents no substantial alteration of the stainable bands and “+” represents substantial alteration of the stainable bands.

proteinase K = target: T2, proteinase K (Parengyodontium album, UniProt P06873); experiment: Treatment of Product R with proteinase K, SDS-PAGE on a 16% gel, silver stain; design: key to Sensitivity of the Peptide Components of Product R (SDS-PAGE): Proteinase K (100 μg/ml) / Sensitivity of the Peptide Components of Product R (SDS-PAGE): Proteinase K (800 μg/ml): “−” represents no substantial alteration of the stainable bands; “+” represents substantial alteration of the stainable bands; conditions: for Sensitivity of the Peptide Components of Product R (SDS-PAGE): Proteinase K (800 μg/ml) / change of silver stained bands after proteinase K treatment: 800 μg/ml proteinase K, one hour
T2 construct: purchased ICN Biochemicals
Method: as §1
The treatment with proteinase K (ICN Biochemicals): Proteinase K is a non-specific broad spectrum protease that cleaves peptide bonds at the C-terminal of aliphatic, aromatic and hydrophobic amino acids. It may cleave all serum peptides completely at 50 μg/ml within one hour. […]
as §2

[1] = target: T3, recombinant N-glycosidase F (Elizabethkingia miricola, UniProt P21163); experiment: Treatment of Product R with N-glycosidase F, SDS-PAGE on a 16% gel; design: key: “−” represents no substantial alteration of the stainable bands; “+” represents substantial alteration of the stainable bands; conditions: 37° C., 4 hours
T3 construct: purchased Boehringer Mannheim, USA
T3 sequence (P21163 41-354): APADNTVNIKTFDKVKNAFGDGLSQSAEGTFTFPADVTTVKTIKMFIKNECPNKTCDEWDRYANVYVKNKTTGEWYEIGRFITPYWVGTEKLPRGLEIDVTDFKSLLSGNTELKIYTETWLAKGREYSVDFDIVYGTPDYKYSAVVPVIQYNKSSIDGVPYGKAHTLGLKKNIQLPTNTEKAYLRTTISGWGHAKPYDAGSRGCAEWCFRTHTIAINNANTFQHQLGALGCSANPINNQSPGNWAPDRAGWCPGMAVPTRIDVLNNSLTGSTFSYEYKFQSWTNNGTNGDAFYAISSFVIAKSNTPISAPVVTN
Method: as §1
The treatment with N-glycosidase F (Boehringer Mannheim, USA): N-glycosidase F cleaves all types of asparagine bound N-glycans provided that the amino group and the carboxyl group are present in a peptide linkage and the oligosaccharide has the minimum length of the chitobiose core unit. A Product R sample is incubated in a reaction buffer containing 0.4X Dulbecco's PBS (where 1X PBS contains 1.47 mM KH2 PO4, 2.67 mM KCl, 138 mM NaCl and 8.1 mM Na2 PO4 7H2O), 0.1% SDS, 0.5% NP40 and 50 units/mil of recombinant N-glycosidase F at 37° C. for 4 hours and subject to SDS-PAGE on a 16% gel. […] The resistance to N-glycosidase F indicates the lack of asparagine bound N-glycan, which is commonly observed in glycoproteins.
as §2

pronase from S. griseus = experiment: Treatment of Product R with pronase, SDS-PAGE on a 16% gel; design: key: “−” represents no substantial alteration of the stainable bands; “+” represents substantial alteration of the stainable bands; conditions: 2 mg/ml pronase, 40° C., 75 minutes
Method: as §1
The treatment with pronase (Boehringer Mannlheim. USA): Pronase is a non-specific protease, acts on both native and denatured proteins. It breaks down virtually all proteins into their individual amino acids. The preparation contains various types of endo-peptidases such as srine and metalloproteases, exo-peptidases such as carboypepsidases, neutral protease and neutral and alkaline phosphatases. A Product R sample is incubated in a reaction buffer containing 100 mM Tris-HCl, pH 7.4; 10 mM CaCl2; 0.1% SDS and 2 mg/ml of pronase from S. griseus at 40° C. for 75 minutes and then subject to SDS-PAGE on a 16% gel. All silver stained components disappear after such treatment of pronase.
as §2

T2 sequence (P06873 106-384): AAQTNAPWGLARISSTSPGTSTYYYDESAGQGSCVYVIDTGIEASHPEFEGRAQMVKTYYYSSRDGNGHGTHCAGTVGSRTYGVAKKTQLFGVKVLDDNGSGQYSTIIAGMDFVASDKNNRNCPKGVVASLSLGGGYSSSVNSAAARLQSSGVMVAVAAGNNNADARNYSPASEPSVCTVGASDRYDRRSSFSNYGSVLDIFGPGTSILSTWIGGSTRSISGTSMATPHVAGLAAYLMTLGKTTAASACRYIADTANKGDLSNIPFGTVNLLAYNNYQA

Sequence | Sensitivity of the Peptide Components of Product R (SDS-PAGE): Trypsin (250 μg/ml) (trypsin) | Sensitivity of the Peptide Components of Product R (SDS-PAGE): Proteinase K (100 μg/ml) (proteinase K; 100 μg/ml proteinase K, 40° C., 30 minutes) | Sensitivity of the Peptide Components of Product R (SDS-PAGE): Proteinase K (800 μg/ml) (proteinase K) | change of silver stained bands after proteinase K treatment (proteinase K) | Sensitivity of the Peptide Components of Product R (SDS-PAGE): N-glycosidase F (50 units/ml) [1] | Sensitivity of the Peptide Components of Product R (SDS-PAGE): Pronase (2 mg/ml) (pronase from S. griseus)
GEIPDAGGRIVDYYVGFSDSV (not fully specified (residue 18)) [Peptide-B, 21-amino acid peptide linked at serine 18 through a diphosphodiester group to the 3′-end of an adenylyl (3′-5′) adenosine moiety] | − | − | − | no obvious change | − | +
KVLPVPQKAVPYPQRDMPIQAFLLYQEPVLG [Peptide-A, 31-amino-acid long peptide derived from bovine beta-casein, constituent of Product R] | − |  | + | disappears | − | +
